Measurements: patent US20020106690A1 (published 2002)
Values joined by “and” are separate entries in the source; they are usually repeats but may differ in a detail not shown here. Equal values may be shown once.

B1: Ste20p (enzyme)
chain: MSNDPSAVSELPDKDSLDNGISNDNERAMGGNGDGGDGLRLPRTTGTLNVNALQKGTNAAHEAGGYKSMDPAKNAETTNDDDNNVVSLDDPIQFTRVSSSSVISGMSSSMSPHSNIDETKSLEAVTPNINTSNITPDHSADNTFSTINASESDHQFNDTLLSKLSLTDSTETIENNATVKHQQPVASSTVNSNKSSTDIRRATPVSTPVISKPSMTTTPRQINSASHSLSNPKHKQHKPKVKPSKPEAKSKPVSVKKSFPSKNPLKNSSPPKKQTEKSYYSSSSKKRKSGSNSGTLRMKDVFTSFVQNIKRNSQDDKRASSSSNNSSSSSITTALRISTPYNAKHIHHVGVDSKTGEYTGLPEEWEKLLTSSGISKREQQQNMQAVMDIVKFYQDVTETNGEDKMFKTFNTTTGLPGSPQVSTPPANSFNKFPPSTSDSHNYGSRTGTPMSNHVMSPTLNTDSSSANGKFIPSRPAPKPPSSASASAPIIKSPVMNSAANVSPLKQTHAPTTPNRTSPNRSSISRNATLKKEEQPLPPIPPTKSKTSPIISTAHTPQQVAQSPKAPAQETVTTPTSKPAQARSLSKELNEKKREERERRKKQLYAKLNEICSDGDPSTKYANLVKIGQGASGGVYTAYEIGTNVSVAIKQMNLEKQPKKELIINEILVMKGSKHPNIVNFIDSYVLKGDLWVIMEYMEGGSLTDVVTHCILTEGQIGAVCRETLSGLEFLHSKGVLHRDIKSDNILLSMEGDIKLTDFGFCAQINELNLKRTTMVGTPYWMAPEVVSRKEYGPKVDIWSLGIMIIEMIEGEPPYLNETPLRALYLIATNGTPKLKEPENLSSSLKKFLDWCLCVEPEDRASATELLHDEYITEIAEANSSLAPLVKLARLKKVAENMDADEDNDDDNDNEHINKTNNCDDNNDSKETVNLDVTEDDKQK
notes: Full length Ste20p in yeast cells (endogenous, or from pDH166 / pSTE20-5); also called STE20^WT; wild-type Ste20p
B2: HA-Ste4p (other, Saccharomyces cerevisiae (yeast), UniProt P18851 1-423, looked up, not shown: small tags and cut ends)
chain: MAAHQMDSITYSNNVTQQYIQPQSLQDISAVEDEIQNKIEAARQESKQLHAQINKAKHKIQDASLFQMANKVTSLTKNKINLKPNIVLKGHNNKISDFRWSRDSKRILSASQDGFMLIWDSASGLKQNAIPLDSQWVLSCAISPSSTLVASAGLNNNCTIYRVSKENRVAQNVASIFKGHTCYISDIEFTDNAHILTASGDMTCALWDIPKAKRVREYSDHLGDVLALAIPEEPNSENSSNTFASCGSDGYTYIWDSRSPSAVQSFYVNDSDINALRFFKDGMSIVAGSDNGAINMYDLRSDCSIATFSLFRGYEERTPTPTYMAANMEYNTAQSPQTLKSTSSSYLDNQGVVSLDFSASGRLMYSCYTDIGCVVWDVLKGEIVGKLEGHGGRVTGVRSSPDGLAVCTGSWDSTMKIWSPGYQ

Assays:
Ste4p, P18851 = target: T1, Ste4p, P18851
T1 chain: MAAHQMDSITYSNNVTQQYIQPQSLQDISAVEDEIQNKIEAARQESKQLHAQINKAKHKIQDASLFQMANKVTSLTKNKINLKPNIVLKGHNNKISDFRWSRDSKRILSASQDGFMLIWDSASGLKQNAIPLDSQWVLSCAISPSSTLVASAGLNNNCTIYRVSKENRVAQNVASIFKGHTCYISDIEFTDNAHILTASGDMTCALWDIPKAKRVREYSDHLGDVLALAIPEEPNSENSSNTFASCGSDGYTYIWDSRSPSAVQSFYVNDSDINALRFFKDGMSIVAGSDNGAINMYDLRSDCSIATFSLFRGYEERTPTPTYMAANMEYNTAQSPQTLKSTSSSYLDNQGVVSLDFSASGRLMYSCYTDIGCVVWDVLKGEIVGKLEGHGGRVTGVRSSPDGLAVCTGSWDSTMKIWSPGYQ

HA-Ste4p [1] = target: B2; test: co-immunoprecipitation from yeast extracts, densitometry of Western blots, against untreated cells
Description: (§1) (A) Time course of pheromone-induced Ste20p binding to HA-Ste4p. HA-Ste4p expressed from the STE4 promoter in cells deleted for STE4 was immunoprecipitated after treatment with 1 pM a-factor. Relative amounts of Ste20p and HA-Ste4p were determined in Western blots (see example in upper and middle panels) and quantified densitometrically (mean values ±SD, n=3) (lower panel). (B) Association of Ste5p with HA-Ste4p expressed from the STE4 promoter in cells deleted for STE4 . HA-Ste4p immunoprecipitates from exponentially growing (−) and pheromone-treated (90 minutes) (+) yeast cells were analyzed with antibodies to Ste5p (upper panel) or HA-Ste4p (lower panel). (C) Overexpression of Ste4p leads to binding to Ste20p. HA-Ste4p was overexpressed from the GAL1 promoter in cells deleted for STE20 (lane 1) or STE4 (lanes 2 and 3). HA-Ste4p expression was suppressed in glucose-containing medium in cells deleted for STE4 (lane 4). Immunoprecipitates obtained with antibodies to Ste20p (lanes 1 and 2) or the HA-epitope (lanes 3 and 4) were analyzed for the presence of Ste20p (upper panel) and HA-Ste4p (lower panel). (D) Coimmunoprecipitation of HA-Ste4p and Ste20p truncation mutants. […] HA-Ste4p (lanes 1 and 2) and Ste20p (lanes 3 and 4) immunoprecipitates were analyzed for the presence of Ste20p (upper panel) and HA-Ste4p (lower panel) by Western blot analyses. […]

Ste20p = target: B1; test: co-immunoprecipitation from yeast extracts, anti-HA IP, Western blot
Description: as §1, with “Relative” for “(A) Time course of pheromone-induced Ste20p binding to HA-Ste4p. HA-Ste4p expressed from the STE4 promoter in cells deleted for STE4 was immunoprecipitated after treatment with 1 pM a-factor. Relative”, “HA-Ste4p expression was suppressed in glucose-containing medium in cells deleted for STE4 (lane 4).” left out, “panel).” for “panel). (D) Coimmunoprecipitation of HA-Ste4p and Ste20p truncation mutants.”
For the detection of Ste20p fragments, a secondary sheep antibody specific to rabbit immunoglobulin light chains and a tertiary HRP-conjugated donkey antibody to sheep IgG were obtained from The Binding Site, Lim. […] For quantitation, immunoblots were evaluated by integrating densitometry using an Epson ES 1200-C densitometer and the NIH Image 1.59 software.

HA-Ste4p [2] = target: B2; test: co-immunoprecipitation from yeast extracts, Western blot
GST-Ste20p FL = target: T2, GST-Ste20p FL (Saccharomyces cerevisiae (yeast), UniProt Q03497 1-939); test: GST pull-down of in vitro-translated HA-Ste18p
T2 construct: Purified on glutathione-Sepharose beads; also called GST fusion with full length Ste20p; not shown: glutathione S-transferase (GST), amino-terminal fusion partner
T2 sequence: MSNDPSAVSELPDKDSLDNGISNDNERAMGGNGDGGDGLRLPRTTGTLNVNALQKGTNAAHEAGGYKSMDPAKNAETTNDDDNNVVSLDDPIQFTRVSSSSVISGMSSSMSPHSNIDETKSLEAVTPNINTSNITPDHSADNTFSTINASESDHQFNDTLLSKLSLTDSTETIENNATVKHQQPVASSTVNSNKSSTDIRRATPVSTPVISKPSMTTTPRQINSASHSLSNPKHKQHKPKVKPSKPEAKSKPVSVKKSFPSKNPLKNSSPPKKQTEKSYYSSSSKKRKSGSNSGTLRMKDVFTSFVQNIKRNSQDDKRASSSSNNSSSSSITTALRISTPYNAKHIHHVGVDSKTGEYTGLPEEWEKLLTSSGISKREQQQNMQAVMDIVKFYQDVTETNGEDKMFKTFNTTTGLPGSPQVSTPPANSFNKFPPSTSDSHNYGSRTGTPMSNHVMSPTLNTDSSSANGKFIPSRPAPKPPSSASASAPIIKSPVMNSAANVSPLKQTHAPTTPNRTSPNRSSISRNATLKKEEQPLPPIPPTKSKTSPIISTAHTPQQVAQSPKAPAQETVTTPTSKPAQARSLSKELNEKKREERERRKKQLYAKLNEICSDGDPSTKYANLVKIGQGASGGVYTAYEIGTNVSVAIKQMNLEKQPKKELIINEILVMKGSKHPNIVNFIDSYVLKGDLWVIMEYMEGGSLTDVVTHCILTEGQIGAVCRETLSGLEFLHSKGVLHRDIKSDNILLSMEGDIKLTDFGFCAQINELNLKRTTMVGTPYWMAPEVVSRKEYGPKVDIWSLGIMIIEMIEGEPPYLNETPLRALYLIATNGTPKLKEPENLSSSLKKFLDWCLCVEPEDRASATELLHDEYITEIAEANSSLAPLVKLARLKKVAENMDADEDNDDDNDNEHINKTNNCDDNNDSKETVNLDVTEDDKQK

Binder	FUS1::lacZ expression (Ste4p, P18851)	FUS1::lacZ expression, Basal (Ste4p, P18851)	FUS1::lacZ expression, Induced (Ste4p, P18851)	G1 arrest (Ste4p, P18851)	Mating efficiencies (%) (Ste4p, P18851)	Shmoo formation (Ste4p, P18851)	fold increase in the interaction after pheromone treatment (HA-Ste4p [1])	binding result (Ste20p)	binding result (HA-Ste4p [2])	binding result (GST-Ste20p FL)
B1	274	0.1	221	+	72.7% and 89.8%	+	~5 fold			
B2								binds		
Ste20p^495-877 (enzyme, Overexpressed from the GAL1 promoter (pDH171) in cells deleted for STE20; also called STE20^495-877) MNSAANVSPLKQTHAPTTPNRTSPNRSSISRNATLKKEEQPLPPIPPTKSKTSPIISTAHTPQQVAQSPKAPAQETVTTPTSKPAQARSLSKELNEKKREERERRKKQLYAKLNEICSDGDPSTKYANLVKIGQGASGGVYTAYEIGTNVSVAIKQMNLEKQPKKELIINEILVMKGSKHPNIVNFIDSYVLKGDLWVIMEYMEGGSLTDVVTHCILTEGQIGAVCRETLSGLEFLHSKGVLHRDIKSDNILLSMEGDIKLTDFGFCAQINELNLKRTTMVGTPYWMAPEVVSRKEYGPKVDIWSLGIMIIEMIEGEPPYLNETPLRALYLIATNGTPKLKEPENLSSSLKKFLDWCLCVEPEDRASATELLHDEYITEIAEA		< 0.1	< 0.1	-	0.02%	-			no binding	
HA-Ste18p (other, Saccharomyces cerevisiae (yeast), UniProt P18852 1-110, looked up, not shown: small tags and cut ends, In vitro-translated from pBTL65; also called in vitro-translated HA-Ste18p; γ-subunit of the mating response G-protein) MTSVQNSPRLQQPQEQQQQQQQLSLKIKQLKLKRINELNNKLRKELSRERITASNACLTIINYTSNTKDYTLPELWGYPVAGSNHFIEGLKNAQKNSQMSNSNSVCCTLM										no binding
